± gives the standard error. Variants at the floor of the assay were thinned out.
B1: glmS ribozyme (parent)
chain: AUAAAAGCGCCAGAACUACAGAAAUGUAGUUGACGAGGAGGAGGUUUAUCGAAUUUUCGGCGGAUGCCUCCAAA

Tests used:
Settings in all cases: with glucosamine-6-phosphate
glucosamine-6-phosphate [1] = variants of: B1; experiment: self-cleavage kobs at 40 uM GlcN6P; higher = faster cleavage; RNA array
How it was run: (§1)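 kobs was derived by fitting per-tile medians to one- or two-exponential decays after normalising signals to baseline and to non-cleaving reference variants. Those signals came from barcoded ribozyme variants transcribed in situ by E. coli RNA polymerase on sequenced MiSeq chips, followed through a hybridised Cy3 probe at 37 °C and imaged over ~14 h. Glucosamine-6-phosphate (40 μM to 10 mM) in HEPES/KCl/Mg(OAc)2 buffer was flowed in. Weighted Michaelis–Menten fits across concentrations then gave kcat and KM.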

glucosamine-6-phosphate [2] = variants of: B1; experiment: self-cleavage kobs at 640 uM GlcN6P; higher = faster cleavage; RNA array
How it was run: as §1

glucosamine-6-phosphate [3] = variants of: B1; experiment: self-cleavage kobs at 2500 uM GlcN6P; higher = faster cleavage; RNA array
How it was run: as §1

glucosamine-6-phosphate [4] = variants of: B1; experiment: self-cleavage kobs at 10000 uM GlcN6P; higher = faster cleavage; RNA array
How it was run: as §1

glucosamine-6-phosphate [5] = variants of: B1; experiment: self-cleavage kobs at 160 uM GlcN6P; higher = faster cleavage; RNA array
How it was run: as §1

Row | Variant | self-cleavage kobs at 40 uM GlcN6P (glucosamine-6-phosphate [1]) [s⁻¹] | self-cleavage kobs at 640 uM GlcN6P (glucosamine-6-phosphate [2]) [s⁻¹] | self-cleavage kobs at 2500 uM GlcN6P (glucosamine-6-phosphate [3]) [s⁻¹] | self-cleavage kobs at 10000 uM GlcN6P (glucosamine-6-phosphate [4]) [s⁻¹] | self-cleavage kobs at 160 uM GlcN6P (glucosamine-6-phosphate [5]) [s⁻¹]
1 | U49A U57G | < 1e-05 | < 1e-05 |  |  | 
2 | A48U C61A C67U | < 1e-05 |  | < 1e-05 | < 1e-05 | 
3 | A48G G59U | < 1e-05 |  |  |  | 
4 | U45G C61G | < 1e-05 | < 1e-05 | < 1e-05 | < 1e-05 | < 1e-05
5 | A48C A64G | < 1e-05 |  |  | 6.31e-05 ± 1.3e-05 | < 1e-05
6 | A42U A48G | < 1e-05 | < 1e-05 |  |  | < 1e-05
7 | A42G G63U | < 1e-05 | < 1e-05 | < 1e-05 |  | < 1e-05
8 | A53C G62U | < 1e-05 |  | < 1e-05 | < 1e-05 | < 1e-05
9 | G43A G51U G63C A64G | < 1e-05 | < 1e-05 | < 1e-05 |  | 
10 | A42C U55A U57C | < 1e-05 |  |  |  | 
11 | G51A U65G | < 1e-05 |  |  | < 1e-05 | < 1e-05
12 | U55A G60C | < 1e-05 | < 1e-05 |  |  | 
13 | U56G G62C | < 1e-05 |  | < 1e-05 |  | < 1e-05
14 | A52U C58U | < 1e-05 | < 1e-05 | < 1e-05 | < 1e-05 | < 1e-05
15 | A42G U56G | 0.000474 ± 5.8e-05 | 0.00411 ± 0.00062 | 0.0067 ± 0.0013 | 0.0334 ± 0.0059 | 0.00171 ± 0.00035
16 | U47C A53U U56A G59C | < 1e-05 | < 1e-05 | < 1e-05 | < 1e-05 | 
17 | C50G C68A | 7.16e-05 ± 9.2e-06 | 0.000137 ± 2.4e-05 | 0.000116 ± 2.1e-05 | 7.83e-05 ± 8.2e-06 | 0.000228 ± 3.1e-05
18 | G43U A48G U65A G66U C70A | < 1e-05 |  |  |  | 
19 | U54G C71A | 0.00016 ± 3.2e-05 |  | 0.00157 ± 0.00049 | 0.00496 ± 0.001 | 
20 | G43C U69C | < 1e-05 |  |  |  | < 1e-05
21 | G43U G59C | < 1e-05 | < 1e-05 | < 1e-05 | < 1e-05 | < 1e-05
22 | G43U G59A | < 1e-05 |  | < 1e-05 | < 1e-05 | 
23 | U56A G59C | < 1e-05 | < 1e-05 | < 1e-05 | < 1e-05 | < 1e-05

Row | Variant | self-cleavage kobs at 40 uM GlcN6P (glucosamine-6-phosphate [1]) [s⁻¹] | self-cleavage kobs at 640 uM GlcN6P (glucosamine-6-phosphate [2]) [s⁻¹] | self-cleavage kobs at 2500 uM GlcN6P (glucosamine-6-phosphate [3]) [s⁻¹] | self-cleavage kobs at 10000 uM GlcN6P (glucosamine-6-phosphate [4]) [s⁻¹] | self-cleavage kobs at 160 uM GlcN6P (glucosamine-6-phosphate [5]) [s⁻¹]
24 | G40U U49C | < 1e-05 | < 1e-05 |  | < 1e-05 | < 1e-05
25 | U49G U57A | < 1e-05 | < 1e-05 |  |  | 
26 | A48C G63U | < 1e-05 | < 1e-05 | < 1e-05 | < 1e-05 | 
27 | C50U G51A | < 1e-05 | < 1e-05 | < 1e-05 | < 1e-05 | 
28 | A42C G63A | < 1e-05 | < 1e-05 |  | < 1e-05 | < 1e-05
29 | A48C G59U C67A | < 1e-05 |  |  |  | 
30 | A53U U54C C67A | 0.000138 ± 2.9e-05 |  |  | 0.00429 ± 0.0016 | 
31 | G51A G63U | < 1e-05 |  |  | < 1e-05 | 
32 | U46G A48U C68U | < 1e-05 |  |  |  | 
33 | C50G C58A C70U | 9.84e-05 ± 1.6e-05 |  | 0.000176 ± 4e-05 | 0.000117 ± 2.1e-05 | 
34 | G44A G59C | < 1e-05 | < 1e-05 | < 1e-05 | < 1e-05 | < 1e-05
35 | G44A A64C | < 1e-05 | < 1e-05 | < 1e-05 | < 1e-05 | 
36 | G41C G43A C50G C67A U69C | < 1e-05 |  |  |  | 
37 | A42G U55A G63C | < 1e-05 |  | < 1e-05 |  | 
38 | U55A A64U C68U | < 1e-05 |  |  |  | 
39 | G40U G63U | < 1e-05 |  |  | < 1e-05 | < 1e-05
40 | U46G G51C C67G | < 1e-05 |  |  |  | 
41 | U54A C67A | 0.000554 ± 0.00013 | 0.00148 ± 0.00034 | 0.00137 ± 0.00037 | 0.00561 ± 0.0016 | 0.000242 ± 4.9e-05
42 | A42C G59C C67G | < 1e-05 |  | < 1e-05 | < 1e-05 | 
43 | G41U C50A U57A | < 1e-05 |  |  | < 1e-05 | 
44 | U46G C68G C71G | 9.54e-05 ± 3.1e-05 |  |  |  | 
45 | G51A C61G | < 1e-05 |  |  |  | < 1e-05
46 | G41U U55G C68U C70U | < 1e-05 |  |  |  | 
